In US6649744B1, “Rnase P polypeptides, polynucleotides, and methods using their mechanisms of action” (SmithKline Beecham Corporation, priority 1999, dated 2003):
Like-named read-outs stand apart in the source and are kept apart here.

What was measured:
S. aureus RNase P RNA = test: Filter binding / gel-shift assay of RNase P protein to RNase P RNA
Protocol: The RNase P RNA/protein interactions were investigated by gel mobility shift and filter binding experiments.
Binding isotherm of RNase P RNA obtained by filter binding assay was asswssed. The 3′-end labeled RNA was mixed with the protein in the binding buffer containing 20 mM K-Hepes, pH8.0, 0.01% NP-40, 400 mM NH4OAc, 10 mM MgCl2, and 5% glycererol. The Kd value was generated by fitting the data with Grafit 4 one-site ligand binding equation: % binding=plateau/(1+Kd/[S. aureus protein]).

E. coli ptRNA^met = test: Cleavage of ptRNAmet by RNase P RNA or holoenzyme (gel, autoradiography); assay type: biochemical; settings: 100 mM TrisCl pH8, 100 mM MgCl2, 5% PEG
Protocol: E. coli ptRNA^met, a substrate for RNase P, was transcribed in vitro by T7 RNA polymerase (Epicenter) in the presence of [α-32P] UTP to internally label the RNA. The DNA template pGem3Z-ptRNA was linearized with BstNI restriction endonuclease to allow run-off transcription. The transcription was performed in a 20 μl reaction at 37° C. for 60min. To remove unincorporated nucleotides the 93 nt RNA (sequence shown below) was cleaned under non-denaturing conditions using a CLONTECH Chroma-Spin 10 column. To calculate the specific activity of the RNA probe, 1 μl samples were removed before and after cleaning, mixed with 5 ml scintillation cocktail and counted in a scintillation counter. ptRNAmet in pGem-3Z, sequence of the transcript (93mer) 5′→3′ [SEQ ID NO: 12]: GGGCGAAUUCGCCUCGGCUACGUAGCUCAGUUGGUUAGAGCACAUCACUCAUAAUGAUGGGGUCACAGGUUCGAAUCCCGUCGUAGCCACCAG
(§1) E. coli M1 RNA is able to cleave ptRNA^met or the minimal substrate p6AT-1 in 100 mM NH4Cl, 100 mM TrisCl pH 7.5, 100 mM MgCl2. The conditions for cleavage of either substrate by S. aureus SP RNA were unknown and clearly deviated from those optimized for E. coli. A large number of different buffer conditions were investigated in order to determine optimal buffer conditions for either substrate cleavage by the S. aureus ribozyme.
(§2) Cleavage reactions (20 μl) were all performed at 37° C. for 30 min with 100 nM SP RNA and an additional 200 nM SP protein in the holoenzyme reactions. Substrates (ptRNA^met or p6AT-1) were added in trace amounts (single-turnover reactions). Cleavage was monitored by size resolution of the intact precursor and the cleaved leader sequence by denaturing gel elctrophoresis and autoradiography or visualization on the phosphorimager (Molecular Dynamics Storm 860).

S. aureus pre-tRNA^phe = test: RNase P kinetics (Michaelis Menten) with cloned pre-tRNAphe as substrate; assay type: biochemical; settings: 50 mM Tris pH8.0, 1 M NH4Cl, 200 mM MgCl2, 5% PEG
Protocol: A cloned pre-tRNA^phe was used as a substrate for kinetic characterizations for both the holoenzyme and RNA only reactions.
RNase P RNA-only kinetics in the following buffer: 50 mM Tris, pH8.0, 1 M NH4Cl, 200 mM MgCl2, and 5% PEG. […] In both experiments, a cloned pre-tRNA^phe was used as substrate.

p6AT-1 = test: Cleavage of minimal substrate p6AT-1 by RNase P RNA or holoenzyme (gel, autoradiography); assay type: biochemical
Protocol: The chemically synthesized 42nt RNA molecule p6AT-l was 5′ end-labeled with high specific activity [γ-^32p] ATP ([…]) using bacteriophage T4 polynucleotide kinase. The labeling was performed in a 10 μl reaction at 37° C. for 30 min. The enzyme was heat-inactivated at 95° C. for 2 min. To remove salts, unincorporated nucleotides and the enzyme, p6AT-1 was gel purified from a 20% polyacrylamide TBE gel with 7M urea. The RNA was extracted from the gel slice and precipitated with 300 mM NaOAc and 2.5 volumes 100% ethanol. After a spin at 14,000 g and 4° C. the RNA pellet was washed twice with chilled 70% ethanol. The pellet was air dried and subsequently resuspended in 50 μl water. 0.5 μl were spotted onto a filter paper disk and counted in a scintillation counter (Cherenkov analysis).
as §1, §2

Molecule	Kd (S. aureus RNase P RNA; 20 mM K-Hepes pH8.0, 0.01% NP-40, 400 mM NH4OAc, 10 mM MgCl2, 5% glycererol, 3′-end labeled RNA, read-out: Kd, filter binding isotherm) [nM]	Kd (S. aureus RNase P RNA; filter binding and gel-shift assays, read-out: binding constant of the complex) [nM]	ptRNAmet substrate processed (E. coli ptRNA^met; 150 mM KCl)	ptRNAmet substrate processed (E. coli ptRNA^met; 800 mM KCl) [%]	ptRNA cleaved (E. coli ptRNA^met; KCl 1M or above) [%]	pre-tRNAphe processing, RNA-only (S. aureus pre-tRNA^phe)	p6AT-1 cleavage (p6AT-1; 10 mM MgCl2, 2M KCl, 100 mM TrisCl pH8, 5% PEG)	p6AT-1 cleavage (p6AT-1; 1M KCl or NH4Cl, 100 mM TrisCl pH7.5, 100 mM MgCl2)	p6AT-1 cleavage, maximal level (p6AT-1; 1.5M KCl, 100 mM TrisCl pH8, 100 mM MgCl2, 5% PEG, 37° C. 30 min, 100 nM SP RNA) [%]	p6AT-1 cleavage (p6AT-1; KCl below 400 mM, 100 mM TrisCl pH8, 100 mM MgCl2, 5% PEG)
S. aureus RNase P protein: 117 amino acid translation product of the S. aureus spp gene, SEQ ID NO:2, expressed as MBP fusion and cleaved (protein, listed as Staphylococcus aureus) MLLEKVYRIKKNADFGRIYKKGHSVANRQFVVYTCNNKEIDHFRLGISVSKKLGNAVLRNKIKRAIRENFKVHKSHILAKDIIVIARQPAKDMTTLQIQNSLEHVLKIAKVFNKKIK	8 ± 1	20								
SP RNA: S. aureus RNase P catalytic RNA component, transcribed in vitro from plasmid pSPR with T7 RNA polymerase; gene SEQ ID NO:3 (nucleic acid, listed as Staphylococcus aureus, RNA transcript of gene) DNA: GTTCTGATATTTTGGGTAATCGCTATATTATATAGAGGAAAGTCCATGCTCACACAGTCTGAGATGATTGTAGTGTTCGTGCTTGATGAAACAATAAATCAAGGCATTAATTTGACGGCAATGAAATATCCTAAGTCTTTCGATATGGATAGAGTAATTTGAAAGTGCCACAGTGACGTAGCTTTTATAGAAATATAAAAGGTGGAACGCGGTAAACCCCTCGAGTGAGCAATCCAAATTTGGTAGGAGCACTTGTTTAACGGAATTCAACGTATAAACGAGACACACTTCGCGAAATGAAGTGGTGTACGACAGATGGTTATCACCTGAGTACCAGTGTGACTAGTGCACGTGATGAGTACGATGGAACAGAACATGGCTTATAGAAATATCACTACTA			more than 50%	82	85	efficiently processed	No cleavage	hardly any cleavage product detectable	27	No cleavage
